Data on eleven substances can be found in patent publication US5585345.

Assay [1] concerns the target human glycoprotein hormone alpha subunit (human) (UniProt P01215). Nature of the assay: co-expression with alpha subunit in CHO cells, 35S-cysteine pulse-chase, immunoprecipitation, SDS-PAGE.
Assay [2] shares this target. The assay can be described thus: co-expression with alpha subunit in CHO cells, pulse-chase, immunoprecipitation; recovery of diglycosylated form, estimated.
The target is the same in assay [3]. Nature of the assay: co-expression with alpha subunit in CHO cells, pulse-chase, immunoprecipitation; monoglycosylated form recovered in the medium.

Regarding LHarg^8 arg^10 (1-114), in assay [1], the Dimer Recovery (%) stood at 95%. Same read-out and setting: with LHarg^8 the figure was 32%; with LHthr^42 (1-114), 84%. The same measure, in the same setting: with LHthr^15 the figure was 30%. In assay [1], CG(1-114) gave a Dimer Recovery (%) of 90%. Regarding LH(1-114), the Dimer Recovery (%) in assay [1] was determined as 80%. Same read-out and setting: with human luteinizing hormone beta subunit the figure was 42%; with LHarg^8 (1-114), 91%; with “human chorionic gonadotropin beta subunit”, greater than 95%. Regarding LHasn^58 (1-114), the Dimer Recovery (%) in assay [1] is greater than 95%.

With LHthr^15 (1-114), the Dimer Recovery (%) in assay [2] is greater than 95%; in assay [3] it was 40%.
